Source: patent US20030212252A1

Biological target: Dog MCH receptor (dog)
Assay: cell-based or functional assay

Dog MCH receptor (dog), sequence (Q5IJ49 other isoform, or with tags, fused parts or gaps): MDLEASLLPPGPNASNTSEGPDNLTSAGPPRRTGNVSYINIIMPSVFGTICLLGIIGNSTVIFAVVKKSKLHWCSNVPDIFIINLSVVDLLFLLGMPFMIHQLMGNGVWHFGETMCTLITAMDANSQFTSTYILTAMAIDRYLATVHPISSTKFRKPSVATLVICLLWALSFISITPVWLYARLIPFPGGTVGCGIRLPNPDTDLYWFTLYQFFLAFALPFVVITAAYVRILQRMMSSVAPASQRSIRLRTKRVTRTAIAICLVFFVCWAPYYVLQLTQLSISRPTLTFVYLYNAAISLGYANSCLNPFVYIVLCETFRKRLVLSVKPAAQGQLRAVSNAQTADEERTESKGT

Which EC50 for activation of the dog MCH receptor (aequorin bioluminescence, fractional response, in transfected 293-AEQ17 cells) does the source give for “Melanin-concentrating hormone (MCH) (from UniProt P20382 147-165) (peptide)” here?
Its EC50 for activation of the dog MCH receptor (aequorin bioluminescence, fractional response, in transfected 293-AEQ17 cells) is 30 nM.
